Reference: the nanobody polyreactivity screen of Harvey et al. (2022)

Assay: yeast display, Sf9 membrane polyspecificity reagent, FACS + sequencing; frameworks hold sequencing errors
Procedure, shortened: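 Galactose induction of a Saccharomyces cerevisiae BJ5465 synthetic nanobody display library ran 36–48 hours. The cells were then stained for 1 hour at 4 °C with 10% biotinylated, detergent-solubilized Sf9 membrane reagent, pulled down on streptavidin microbeads and FACS-sorted into low and high (top ~1%) gates on expression and reagent-binding fluorescence. Labels for polyreactivity follow the gate of origin.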

Sequence | polyreactivity (PSR sort gate)
QVQHVESVGGLVQAGGRLRLSSAASGSIFSYNAMGWYRQAPVKERQLVARITRGGDGTYYADSVMVRFTISRDNAKNTVYLQMNSLKPEDTAVYYCAGTPYWYHLRVEGGYWGQGTQVTVSS | low polyreactivity
QVQHVESVGGLVQAGGSLRLSCAASGSTFARYVMGWYRQAPGKEWELVAVISRSGGSTYYADSVKGRFTISRDNAKNTVYLQMNSLKPEDTAVYYCNARSSNYWWYYYWGQGTQVTVSS | high polyreactivity
QVQHVESWGGIVQARGSLRLSCAASGSTFSYNALGWYRQPPGKERELVAALTCSGASTYYAYSVKGRFTISRDKAKNTVYLQLSSMNPDDTAVYYCNAPDGPGPNAYYEFDYWGQGTQVTVSS | low polyreactivity
QVQHVQTLGGLDQAGGSLRLSFSDSGSNFGYYSIVLYRLAPGKERELVAAITGSGGGTYYADSVKGRLTISRDNAKNTVYLQMNSLKPEDTAVYYCAKDRNYRIYWGEYWGHGTQVTVSS | low polyreactivity
QVQIEESGGGLVQAGGSLRLSCAASGFIFRPYAMGWYRQAPGKERELVAAITGGGSTYYADSVKGRFTISRDNAKNTVYLQMISLKPEDTAVYYCNADRRRRSGGFAGWHFQRNDYWGQGTQVTVSS | low polyreactivity
QVQIEESGGGLVQAGGSLRLSCAASGRTFYANVMGWSRQAPGIEWELVAAITYSGGSTYYADSVKGRFTISRDNAQNTVYVLMNCLKQEDTADYYCAADNVYTFYYWGQGTLVTVSS | low polyreactivity
QVQIEESGGGLVQAGGSLRLSCAASGSTFGINAMGWSRQAPGKERELVAAISSRGGSTYYADSVKGRFTISRDNAQNTVYLQMNSLKPADTALYSCNRRGWSRTHQYDYWGQGTQVTVSS | high polyreactivity
QVQIGESGGGLVQAGGSLRLSCAASGRTFGLYAMGWYRQAPGKERELVAAITISGGITHYADSVKGRFTISRDIAKNSVYLQMNSLKPEDTAVYYCAAEPPGFRTSGVGYWGQGTQVTVSS | low polyreactivity
QVQIVDSGGGLVQAGGSLRISCAASGRIFAGYGKGWYRQAPGKERELVAAISSGGSTYYADSVKGRFTISRDNAKNTVYLQMNSLKPEDTAVYYCATDGQSVPDDYYQNVDYDYWGQGTQVTVSS | low polyreactivity
QVQIVDSGGGLVQAGGSLRLSCAASGLIIGPYAMGWYRQAPGKERELVAAITSGTTTYYADSVKGRFTISRDNAKNTVYLQMNSLKPEDTAVYYCAAYWPVNSQPIQIGYLYDYWGQGTQVTVSS | low polyreactivity
QVQIVDSGGGLVQAGGSLRLSCAASGRIIPANAMGWYRQAPGKERELVAAIDYDGGSTYYADSVKGRFTISRDNAKNTVYLQMNSLNPEVTAVYYCAADFYDYEGSYYDYYWGQGTQVTVSS | high polyreactivity
QVQIVDSGGGLVQAGGSLSLSCAASGSTFRGYAMGWYRQAPGKERELVAAITGSGDRTRYADSVKGRFTISRDNAKNTVYLQKNSLKPADTAVNYCAKVWPHWAYYSWGQGTQVTLSS | high polyreactivity
QVQIVESGAGLVHAGGSLRISCAASGRIFWIYAMGWYRQAPGKESELVATITGSGGSTYYADSVKGRFTISRDNAKKTVYLQMNSLKPEVTAVYYCAARYPVSGGYDYWGQGTQVTLSS | low polyreactivity
QVQIVESGAGLVQAGGSLRISCAPSGRTFLYNAMGWYIQAPGKESELVAAIDGGTGSTYYADSVKARFTISRDNAKNTVYLQMIRLNPEDTAGYYCAAETYGVGYPVNYDYWGQGTQVTVSS | low polyreactivity
QVQIVESGGGIVQAGGSLRLSCAASGIIFSGYVMGWYRQAPGKERQLVAAISSGGSKYYADSVKGRFTISRDNAKNTFYLQINSLKPEDTEVYYCAAAGYWTLGYGYWGQGTQVTVSS | low polyreactivity
QVQIVESGGGLDQAGGSLRLSCAASGRTLGYYAMVWYRQAPGIERELVAAISRTGGRTYYADSVKGRFTISLDNAKNTVYLQMNSLKPEDTAVYYCAVVAPDGYDFYYWGQGTQVTVSS | high polyreactivity
QVQIVESGGGLFQAGGILRLSCAASGLTLFRDAMGWYRQAPGKERELVAAIDYGGGTYYADSVKGRFTISRDNAKTTVNLQMNRLKVEDTAVYYCAVEPEYKYYEGDFWGQGTQVTVSS | low polyreactivity
QVQIVESGGGLFQAGGRLPLSCAASGSSFKINDMGWYRHAPGKERELVATITWSTGTTYYADSVKGLFTISRYNAKNTVYLKMNSLKPEYTAVYYCAADYCSYGYVLFDYWGQGTQVTVSS | low polyreactivity
QVQIVESGGGLVQAGGILRLSCAASGITFTSYAMGWYRQAPGKEREFVAAISWSGDRTYYADSVKGRFTISRDNAKNTVYLQMICLKPEETAVYYCNAYIYFSAYDPDYYWGQGTQVTVSS | high polyreactivity
QVQIVESGGGLVQAGGSLRFSCAASGRIFRGYDMGWYRQAPGKEREFVAAISWSGGNTYYADSVKGRFTISRDNAKNTVYLLMNSLNPEDTAVYYCAARVFGSHFYYRTRPYDYWGQGTQVTVSS | high polyreactivity
QVQIVESGGGLVQAGGSLRISCAASGSIFIYYAMGWYRQAPGKDRELVAAISNGGSTNYADSVKGRFTISRDNANNTVYLLMNRLTPEDTSVFYCNKQYWYWSNTLTIRDYWGQGTQVTVSS | low polyreactivity
QVQIVESGGGLVQAGGSLRLICAASGIIFEGYAMGWYRQAPGKERELVAAISQSGGSTRYADSVKGRFTISRDNATNTVYLQMNSLKPEDTAVYYFAKEVWNWGPYYYWGQGTQVTVSS | low polyreactivity

Sequence | polyreactivity (PSR sort gate)
QVQIVESGGGLVQAGGSLRLICAASGRILSANAMGWYRQAPGKERELVAAITYSGDNTYYADYVKGRFTISRDNANNTVYLQMNSLKPEDTAVYYCAREFQVDGGEEDYWGQGTQVTVSS | low polyreactivity
QVQIVESGGGLVQAGGSLRLICAASGSIFFYYAMGWYRQAPGKEWELVAAITFTGGSTYYADSVKGSFTISRDNAKNTVYLQMTSLKPEDTAVYYCAADWYYGFEYEYRGQGTQVTVSS | high polyreactivity
QVQIVESGGGLVQAGGSLRLRCADSGRIFVRYAMGGYIQSPGKDRELVAGITSGSRTNYADSVKGRFTISRDNAKNTVYLQMNSLKPEDTAVYYCAKRYLRYSRLGNYWGQGTQVTVSS | high polyreactivity
QVQIVESGGGLVQAGGSLRLSCAASGFIFFAYAMGWYRQAPGKERELFAAISRTGGSTYYADSVKGRFTISRDNAKNTVYLQMNSLKPEDTAVYYCAADGGYYGRDYWGQGTQVTVSS | high polyreactivity
QVQIVESGGGLVQAGGSLRLSCAASGFTFVYYAMGWYRQAPGKERELVAAISKRGGSTYYADSVKGRFTISRDNAKNTVYLQMNSLKPEDTAVYYCNAGYGRWQRHDYWGQGTLVTVSS | high polyreactivity
QVQIVESGGGLVQAGGSLRLSCAASGFTFWNYAMGWYRQAPGKERELVATITRSGGRTYYADSVKGRFTISRDHAKNTGYLQMNSLIPEDTAVYYCSARVWPVVYSWGYNYLGQGTQVTVSS | high polyreactivity
QVQIVESGGGLVQAGGSLRLSCAASGGIFEINVLGWYRQAPGKERELVAAISSRGGSTYYADSVKGRFTISRDNAKNTVYLQMNSLKPEDTAVYYCARRYRPKYGYWGQGTQVTVSS | high polyreactivity
QVQIVESGGGLVQAGGSLRLSCAASGIIFVRYDIGWYRPAPGKERELVAAISWSGGRTYYADSVKGRFTISRDNAKNTVYLQMNSLKPEDTEVYYCNAKGSYWWYQKDYWGQGTQVTVSS | high polyreactivity
QVQIVESGGGLVQAGGSLRLSCAASGITFYGYAMGWYRQAPGKERELVAVITSSRSSTYYADSVKGRFTISRDNAKNTFFLQMNSLKPEDTEVYYCNPRPGRRSLRSRTYDYWGQGTQVTVSS | high polyreactivity
QVQIVESGGGLVQAGGSLRLSCAASGLIFVVYAMGWNRQATGIERELVADISSVGRTSYADSVKGSFTISRDNAKNNVYLQMNSLKPEDTAVYYCNAYPVFNQYYCWRYDYLGQGTQVTVSS | low polyreactivity
QVQIVESGGGLVQAGGSLRLSCAASGLIFYAYAMGWYRQAPGKERELVAAMSYSGGSTYYADSVKGRFTISRDLAKNTVYLQMNSLKPEDTAVYYCAADDGISTYEYWGQGTQVTVSS | high polyreactivity
QVQIVESGGGLVQAGGSLRLSCAASGLIIPFYAMGWYRQAPGKERELVAAISWSAGSTYYADSVKGRFTISRDNAKNTVYLQMNSLKPEDTAGYYCAATAYYYYDYDYWGQGTQVTVSS | low polyreactivity
QVQIVESGGGLVQAGGSLRLSCAASGLTFRSYTIGWYRHAPGKERELVAAISSGGSTYYADSVKGRFTISRDNAKNTVYLQMNSRKPEDTAVYFCAAPRGHGKYYSWGQGTQVTVSS | high polyreactivity
QVQIVESGGGLVQAGGSLRLSCAASGNTFPAYAMGWYRQAPGKERELVATISWSTGSTNYADSVKGRFTISRDNANNTVYLQMNSLKPEDTAVYYCNKRYPTDQMYYWGQGTLVTVSS | low polyreactivity
QVQIVESGGGLVQAGGSLRLSCAASGRIFAYNAMGWYRQAPGKERELVVAISWTGGRTSYADSVKGRFTISCDNAKNTVYLQMNSLKPEDTAVYYCNARYRYRLRGYDYWGQGTQVTVSS | high polyreactivity
QVQIVESGGGLVQAGGSLRLSCAASGRIFDDYAMGWYRQAPGKEREFVAAISTSGGSTYYADSVMGRFTISRDNAKNTVYLKMNSLKPEDTAVYYCNKYGYYGWFGSRYWHDYWGQGTQVTVAS | high polyreactivity
QVQIVESGGGLVQAGGSLRLSCAASGRIFERYAMGWYRQAPGKERELVAGISISGGGTYYADSVKGRFTISRDNAKNTVYLQMNSLKPEHNAVYYCAGTFPREEYGYWGEGTQVTVSS | low polyreactivity
QVQIVESGGGLVQAGGSLRLSCAASGRIFGYNAMGWYRQAPGKERELVATITVGGGSTYYADSVKGRFTISRDNAKNTVYLQMNSLKPEDTAVYYCAADSGYQPVLHRGYYRFNYWGQGTQVTVSS | low polyreactivity
QVQIVESGGGLVQAGGSLRLSCAASGRIFKLYAMGWSRQAPGKERELVAAITRRGGSTSYADSVKGRFTISRDNAKNTVYLQMNSLKPEDTAVYYCAASYTGRTVVQGYEYWGQGTQVTVSS | high polyreactivity
QVQIVESGGGLVQAGGSLRLSCAASGRIFVYNAMGWYRQAPGKERELVAAISSTGSTNYADSVKGRFTISRDNAKNTVYLQMNSLKPEDTAVYYCAAVYYFYGFSGYYGQYDYWGQGSQVTVSS | low polyreactivity
QVQIVESGGGLVQAGGSLRLSCAASGRIFYGYAMGWYRQAPGKEREFVARINVSGTSTFYADSVKGRFTISRDNAKNTVYLQMNSLKPEDTAVYYCAARGLPSNYYYYVHGYIMDYWGQGTQVTVSS | low polyreactivity
